The data set in a line: amyloid nucleation score (Sup35N fusion, yeast selection) (log enrichment); library NNK3; higher = more nucleation; inactive = no reads after selection. In short, it runs like this: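 In psi-negative yeast, Sup35N fusions carrying peptides of 20 random codons were induced with 100 μM copper sulfate for 24 hours. The cells then grew 7 days at 30°C on medium lacking adenine and uracil, and plasmid inserts from input and output were Illumina-sequenced, excluding sequences with under 100 input reads. Nucleation score is the DiMSum log enrichment of output over input reads, centred on the mode score of non-aggregating sequences.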

± gives the uncertainty stated by the source.

Take IYSVYWDGMEPSIRTGWI: the amyloid nucleation score entry was “inactive”.
In the case of QGLSCDFRVLLLIYRSCGRG, the amyloid nucleation score entry is “inactive”.
AVSAVCSAVCGLMSSSTDMD gave an amyloid nucleation score of 0.527 ± 0.26.
The substance VVMIPNIFCDWRGNGNNQCG returned an amyloid nucleation score of 1.33 ± 0.11.
Regarding RIKYS, the amyloid nucleation score entry was “inactive”.
The same measure for FIYDEQSSDSVV: “inactive”; for TVLITIIFTSRGVAVRKS: -1.19 ± 1.9; for SSKARSQSCVLRMMIPDRQW: “inactive”.
The same measure for WRAADDQTWGLVRCLSI: 0.57 ± 0.17; for CIFYDSLVDWDHHYSHKGWH: “inactive”; for YHYLSNVGMRWGDFTYSWFM: “inactive”.
With QVILKNMGPNIVSYGLG the entry was “inactive”; with DRSIEVDAYSCAVGVYQGPV, “inactive”; with FFAECCRGNKCYMRSKDDQS, “inactive”.
Take ELYMQMCYRRIGCV: the amyloid nucleation score result is “inactive”.
For the substance CAHVSFKLVFSINWWSNLLN, the amyloid nucleation score entry is “inactive”.
With YRYCINVTKYHLLQ the entry was “inactive”; with RPRNLSLASYTDSVMRFGLS, “inactive”; with NFMPNKYCNVELVFWGDLGI, 1.59 ± 0.12.
As to SVGKWMYRPSEYGACCASGY, the amyloid nucleation score entry was “inactive”.
FYSAISVAAYIEMTWESVDM: the amyloid nucleation score result was “inactive”.
On to VIITSSTVLMFRFLEYRESQ, for which the amyloid nucleation score entry is “inactive”.
Turning to IFCGPCLSSYRPKWTGMTSY, the amyloid nucleation score turned out to be 2.12 ± 0.06.
The same measure for MFSLNVYMGDTIVVHQGFTD: 2.77 ± 0.058; for ARSARGLGQRYLLYMYCLWL: “inactive”.
For the substance NATSQLVVGAVQ, the amyloid nucleation score result is “inactive”.
In the case of SFGYLSAPRFIVGKVSHLGC, the amyloid nucleation score entry was “inactive”.
With CVSGDCVMIMFYLFSPVAVV the entry was “inactive”; with FNFLVWAQ, “inactive”.
The same measure for SAVRHRLWVVGLASTRLYEC: -0.24 ± 1.1.
With DDSNCKRKDRVVSVRMMDLT the entry was “inactive”; with LRSLYSTINFKMCWICEAAS, “inactive”.
Consider NVFFIRNNQTTGRLKFWCQV, for which the amyloid nucleation score came out at 0.958 ± 0.12.
YWMMY: the amyloid nucleation score result is “inactive”.
With FLPWDFKASKKEPYSKYMNL the entry was “inactive”; with FIRMVGRLKKWRVS, “inactive”.
The same measure for FFFYLPICTLGILYLFDCKA: 0.386 ± 0.2.
With WDFGPEVLSE the entry was “inactive”; with AYAIGHEDCEVYQLLVKLLG, “inactive”; with HNMNR, “inactive”.
Turning to RRYEFLGGTEGSARRLDSKP, the amyloid nucleation score entry was “inactive”.
For the substance FLGAVRLYSPAHTY, the amyloid nucleation score entry was “inactive”.
With SNIRYRNFRSGFFIQWLHTG the entry was “inactive”; with GCKTREVLLYWLIMRPGGYS, “inactive”; with CVADHLSCISTRGNCCYMSG, 0.473 ± 0.26.
With EFGFVNGNRAGWGYFQRRAL the figure was -0.55 ± 2.4.
YVNRYLLYFSFFTFANMCGS gave an amyloid nucleation score of 2.05 ± 0.055.
With MLVATL the entry was “inactive”; with GDVRLFTCRMLGILFFSIT, “inactive”; with TYENDLC, “inactive”.
On to AVVVIQRYLAVHCWVFGERI, for which the amyloid nucleation score was -0.57 ± 0.93.
The same measure for LNCATFHYLTAVILMEYCRT: “inactive”; for SLRLSCVDVQVNN: -0.253 ± 0.9; for CYRCVCFLLCGFVQSDCYDD: “inactive”.
In the case of NLRNDIYMTSICCE, the amyloid nucleation score entry was “inactive”.
The same measure for VNGLLAIRVYCKHWP: “inactive”; for TVKMRKFRRGTFRDMDIYWR: “inactive”.
With YSFRVTYEGPHAN, the amyloid nucleation score was 0.873 ± 0.14.
On to KFSSMGTVSLSGKSLYSDAV, for which the amyloid nucleation score entry was “inactive”.
The same measure for YENCSMYYSTTGIPAMCEIT: “inactive”.
On to LFNGSSFITCSRTLGVL, for which the amyloid nucleation score result is “inactive”.
In the case of SEWKNTRNTHVLWYTSDSAT, the amyloid nucleation score entry was “inactive”.
With VTCCLLFLDCGVGSRMMLGL the figure was -0.356 ± 0.98.
With LRDFRKVSPAKVIDNRFQTD the figure was 0.827 ± 0.17; with GCRYQGHCHVYYLAERIACD, “inactive”; with NGKVLM, “inactive”.
The substance LMLIFRLNCG registered an amyloid nucleation score of 1.62 ± 0.097.
As to FCRQGNILFY, the amyloid nucleation score result is “inactive”.
With VKDYNYKFWALPSVPREWVF the entry was “inactive”.
The same measure for NLMCW: 0.958 ± 0.21.
On to NNIIVVKTAS, for which the amyloid nucleation score entry was “inactive”.
In the case of MACKLSTRKSSNWGKHLLCY, the amyloid nucleation score entry was “inactive”.
With HEVAAPRRRHSSMLVAGSAG the entry was “inactive”; with SPARRLAAFGFVVL, -0.385 ± 1.2.
Consider SISRLVISF, for which the amyloid nucleation score result was “inactive”.
For FIVVDMDSYRAVDGARVFVE, the amyloid nucleation score result is “inactive”.
With LQTVNLLVPACI the entry was “inactive”.
Substance FSNSRDSILWHRFGRICASY showed an amyloid nucleation score of 1.58 ± 0.12.
With MNTVGLIDLHSGAPLSINRT the entry was “inactive”; with QGSLVKFS, “inactive”.
With PELLEHYMSHF the entry was “inactive”; with DFISERHYHRPAGPA, “inactive”.
As for DILIREFDYLTSTHLDDKIR, the amyloid nucleation score entry was “inactive”.
The same measure for DEIPCDVRGLMPTRVSTLNL: “inactive”; for SVPDTLSDFISCPVNCTFLN: “inactive”.
With GTEYLV, the amyloid nucleation score result was “inactive”.
The same measure for TAVVKW: “inactive”; for SYNCA: “inactive”.
Consider FHFYGFCLYAYFSAIEDQNC, for which the amyloid nucleation score is 2.06 ± 0.071.
The same measure for FGFCWLFNLCYLGNVVYAVM: “inactive”; for TLDHEWGFLSEKATVL: “inactive”; for LFVWRSMNRFFQVYVLWSAE: “inactive”.
With YQVSI the entry was “inactive”.
The same measure for EFGVVVNEFYGDVY: “inactive”; for PRRSERYFCFF: 0.443 ± 0.23.
Consider TFLWY, for which the amyloid nucleation score entry was “inactive”.
Regarding LAVFKFDRSLIWDTTVRVFH, the amyloid nucleation score entry is “inactive”.
With VLAGACDYPYGNVLV the entry was “inactive”.

Source of the values: the supplement of paper PMC12042874.
